Results taken from article PMC8660880.

Biological target: mS105 (Chlamydomonas reinhardtii (endogenous in strain CC-4351))
Assay: cryo-EM structure; single-particle reconstruction of the native small subunit (SSU) of the C. reinhardtii mitoribosome isolated from purified mitochondria; Monosome buffer; 5.49 A, focused refinement 4.19 A (body) and 4.47 A (head)

mS105 (natural protein)
stoichiometry N: 3
